Experimental data reported in PMC11329664.

Target: Alexa Fluor 488-conjugated human CD40-CA-His12 (ectodomain of human CD40) (human)
Experiment: scanning fluorescence correlation spectroscopy with brightness-transit statistics (sFCS BTS); CD40-AF488-His tethered through Ni-NTA-DGS to a BSA-blocked supported lipid bilayer, titrated to higher surface densities (100 and 175 molecules/µm^2); brightness and transit time compared with the monomeric control AF488-His; 24 °C

- stoichiometry N: > 2
Substance: Alexa Fluor 488-conjugated human CD40-CA-His12 (ectodomain of human CD40) (domain or fragment)
